Assay results: patent US20200262867A1 (WNTRX PHARMACEUTICALS, published 2020)
Bridges are numbered along the chain shown (N, C = ends). [ ]: non-standard residue; d: D form. Phe(4-Cl) = N[C@@H](Cc1ccc(Cl)cc1)C(=O)O; 2Nal = N[C@@H](Cc1ccc2ccccc2c1)C(=O)O; NMeCha = CN[C@@H](CC1CCCCC1)C(=O)O; NMeR = CN[C@@H](CCCNC(=N)N)C(=O)O; NMeE = CN[C@@H](CCC(=O)O)C(=O)O; NMeQ = CN[C@@H](CCC(N)=O)C(=O)O; Cha = N[C@@H](CC1CCCCC1)C(=O)O; NMeD = CN[C@@H](CC(=O)O)C(=O)O; Cba = N[C@@H](CC1CCC1)C(=O)O; Tle = CC(C)(C)[C@H](N)C(=O)O; S5 = C=CCCC[C@](C)(N)C(=O)O

Biological target: T1, β-catenin (UniProt P35222 1-781, limits assumed)
T1 construct: also called beta-catenin
T1 sequence (looked up): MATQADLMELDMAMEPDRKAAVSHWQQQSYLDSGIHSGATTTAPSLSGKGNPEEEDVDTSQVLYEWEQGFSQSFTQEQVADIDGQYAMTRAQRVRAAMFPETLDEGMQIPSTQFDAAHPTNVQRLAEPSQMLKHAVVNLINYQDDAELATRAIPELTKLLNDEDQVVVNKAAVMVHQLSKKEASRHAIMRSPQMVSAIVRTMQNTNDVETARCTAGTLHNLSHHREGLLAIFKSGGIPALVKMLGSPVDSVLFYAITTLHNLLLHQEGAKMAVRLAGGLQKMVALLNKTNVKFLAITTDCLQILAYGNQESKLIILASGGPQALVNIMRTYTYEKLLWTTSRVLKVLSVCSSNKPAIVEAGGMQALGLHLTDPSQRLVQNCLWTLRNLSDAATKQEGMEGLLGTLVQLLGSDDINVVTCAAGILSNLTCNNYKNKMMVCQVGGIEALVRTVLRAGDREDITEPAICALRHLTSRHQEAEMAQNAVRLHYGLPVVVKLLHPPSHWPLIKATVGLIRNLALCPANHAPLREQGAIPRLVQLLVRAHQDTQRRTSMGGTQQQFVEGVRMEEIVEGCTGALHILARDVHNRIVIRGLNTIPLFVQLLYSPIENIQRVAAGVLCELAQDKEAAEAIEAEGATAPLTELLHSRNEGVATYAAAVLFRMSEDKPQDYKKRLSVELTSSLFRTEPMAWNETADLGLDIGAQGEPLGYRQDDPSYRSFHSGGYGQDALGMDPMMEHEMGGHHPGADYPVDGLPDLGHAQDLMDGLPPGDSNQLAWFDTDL
Test: ALPHA Screen (BCL9/β-catenin);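 also: bead proximity readout with the polypeptide linked to donor beads and β-catenin fixed on acceptor beads, their binding bringing the beads close enough to emit signal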
Text: In this assay, a polypeptide is conjugated to a donor bead and its target protein (i.e., β-catenin) is attached to an acceptor bead. When the two beads are in proximity due to the binding of the polypeptide to the target protein, a signal is generated and the binding affinity of the polypeptide can be quantitatively calculated. The assay may be conducted in the presence or absence of an unconjugated control polypeptide.

Binder | IC50 [nM]
Ac-H[NMeR]QRSLQTLR[S5]IQR[S5][Cba][2Nal]-NH2 (staple 11-15) [SEQ ID NO: 166] | 403
Ac-HRERSLQTLR[S5]IQR[S5]L[2Nal]-NH2 (staple 11-15; not fully specified; printed as HRERSLQTLRXIQRXL(2-Nal)) [SEQ ID NO: 6] | 670
Ac-HQERSLQTLR[S5]IQR[S5]L[2Nal]-NH2 (staple 11-15; not fully specified; printed as HQERSLQTLRXIQRXL(2-Nal)) [SEQ ID NO: 11] | 2110
Ac-HRERSLQTLR[S5]IQR[S5][Cba][2Nal]-NH2 (staple 11-15; SMILES CC[C@H](C)[C@@H]1NC(=O)[C@@](C)(NC(=O)[C@H](CCCNC(=N)N)NC(=O)[C@H](CC(C)C)NC(=O)[C@@H](NC(=O)[C@H](CCC(N)=O)NC(=O)[C@H](CC(C)C)NC(=O)[C@H](CO)NC(=O)[C@H](CCCNC(=N)N)NC(=O)[C@H](CCC(=O)O)NC(=O)[C@H](CCCNC(=N)N)NC(=O)[C@H](Cc2c[nH]cn2)NC(C)=O)[C@@H](C)O)CCCC=CCCC[C@@](C)(C(=O)N[C@@H](CC2CCC2)C(=O)N[C@@H](Cc2ccc3ccccc3c2)C(N)=O)NC(=O)[C@H](CCCNC(=N)N)NC(=O)[C@H](CCC(N)=O)NC1=O) [SEQ ID NO: 14] | 457
Ac-HRERSLQTLR[S5]IQA[S5]L[2Nal]-NH2 (staple 11-15; not fully specified; printed as HRERSLQTLRXIQAXL(2-Nal)) [SEQ ID NO: 28] | 2000
Ac-HRERSLQTLR[S5]IQA[S5][Cba][2Nal]-NH2 (staple 11-15; not fully specified; printed as HRERSLQTLRXIQAX(CBA)(2-Nal)) [SEQ ID NO: 29] | 1350
Ac-HRERSLQTLR[S5]IQQ[S5][Cba][2Nal]-NH2 (staple 11-15; SMILES CC[C@H](C)[C@@H]1NC(=O)[C@@](C)(NC(=O)[C@H](CCCNC(=N)N)NC(=O)[C@H](CC(C)C)NC(=O)[C@@H](NC(=O)[C@H](CCC(N)=O)NC(=O)[C@H](CC(C)C)NC(=O)[C@H](CO)NC(=O)[C@H](CCCNC(=N)N)NC(=O)[C@H](CCC(=O)O)NC(=O)[C@H](CCCNC(=N)N)NC(=O)[C@H](Cc2c[nH]cn2)NC(C)=O)[C@@H](C)O)CCCC=CCCC[C@@](C)(C(=O)N[C@@H](CC2CCC2)C(=O)N[C@@H](Cc2ccc3ccccc3c2)C(N)=O)NC(=O)[C@H](CCC(N)=O)NC(=O)[C@H](CCC(N)=O)NC1=O) [SEQ ID NO: 145] | 154
Ac-HRERSLQTLR[S5]IQE[S5][Cba][2Nal]-OH (staple 11-15; SMILES CC[C@H](C)[C@@H]1NC(=O)[C@@](C)(NC(=O)[C@H](CCCNC(=N)N)NC(=O)[C@H](CC(C)C)NC(=O)[C@@H](NC(=O)[C@H](CCC(N)=O)NC(=O)[C@H](CC(C)C)NC(=O)[C@H](CO)NC(=O)[C@H](CCCNC(=N)N)NC(=O)[C@H](CCC(=O)O)NC(=O)[C@H](CCCNC(=N)N)NC(=O)[C@H](Cc2c[nH]cn2)NC(C)=O)[C@@H](C)O)CCCC=CCCC[C@@](C)(C(=O)N[C@@H](CC2CCC2)C(=O)N[C@@H](Cc2ccc3ccccc3c2)C(=O)O)NC(=O)[C@H](CCC(=O)O)NC(=O)[C@H](CCC(N)=O)NC1=O) [SEQ ID NO: 146] | 493
Ac-HR[NMeE]RSLQTLR[S5]IQR[S5][Cba][2Nal]-NH2 (staple 11-15; SMILES CC[C@H](C)[C@@H]1NC(=O)[C@@](C)(NC(=O)[C@H](CCCNC(=N)N)NC(=O)[C@H](CC(C)C)NC(=O)[C@@H](NC(=O)[C@H](CCC(N)=O)NC(=O)[C@H](CC(C)C)NC(=O)[C@H](CO)NC(=O)[C@H](CCCNC(=N)N)NC(=O)[C@H](CCC(=O)O)N(C)C(=O)[C@H](CCCNC(=N)N)NC(=O)[C@H](Cc2c[nH]cn2)NC(C)=O)[C@@H](C)O)CCCC=CCCC[C@@](C)(C(=O)N[C@@H](CC2CCC2)C(=O)N[C@@H](Cc2ccc3ccccc3c2)C(N)=O)NC(=O)[C@H](CCCNC(=N)N)NC(=O)[C@H](CCC(N)=O)NC1=O) [SEQ ID NO: 151] | 261
Ac-HRERSLQTL[NMeR][S5]IQR[S5][Cba][2Nal]-OH (staple 11-15; not fully specified) [SEQ ID NO: 152] | 794
Ac-HRQRS[Cba]QTLR[S5]IQR[S5][Cba][2Nal]-NH2 (staple 11-15; SMILES CC[C@H](C)[C@@H]1NC(=O)[C@@](C)(NC(=O)[C@H](CCCNC(=N)N)NC(=O)[C@H](CC(C)C)NC(=O)[C@@H](NC(=O)[C@H](CCC(N)=O)NC(=O)[C@H](CC2CCC2)NC(=O)[C@H](CO)NC(=O)[C@H](CCCNC(=N)N)NC(=O)[C@H](CCC(N)=O)NC(=O)[C@H](CCCNC(=N)N)NC(=O)[C@H](Cc2c[nH]cn2)NC(C)=O)[C@@H](C)O)CCCC=CCCC[C@@](C)(C(=O)N[C@@H](CC2CCC2)C(=O)N[C@@H](Cc2ccc3ccccc3c2)C(N)=O)NC(=O)[C@H](CCCNC(=N)N)NC(=O)[C@H](CCC(N)=O)NC1=O) [SEQ ID NO: 156] | 253
Ac-HR[NMeD]RSLQTLR[S5]IQR[S5][Cba][2Nal]-NH2 (staple 11-15; SMILES CC[C@H](C)[C@@H]1NC(=O)[C@@](C)(NC(=O)[C@H](CCCNC(=N)N)NC(=O)[C@H](CC(C)C)NC(=O)[C@@H](NC(=O)[C@H](CCC(N)=O)NC(=O)[C@H](CC(C)C)NC(=O)[C@H](CO)NC(=O)[C@H](CCCNC(=N)N)NC(=O)[C@H](CC(=O)O)N(C)C(=O)[C@H](CCCNC(=N)N)NC(=O)[C@H](Cc2c[nH]cn2)NC(C)=O)[C@@H](C)O)CCCC=CCCC[C@@](C)(C(=O)N[C@@H](CC2CCC2)C(=O)N[C@@H](Cc2ccc3ccccc3c2)C(N)=O)NC(=O)[C@H](CCCNC(=N)N)NC(=O)[C@H](CCC(N)=O)NC1=O) [SEQ ID NO: 157] | 525
Ac-HRQRTLQTLR[S5]IQR[S5][Cba][2Nal]-NH2 (staple 11-15) [SEQ ID NO: 159] | 291
Ac-HRQRSLQTLR[S5]IQR[S5][Phe(4-Cl)][2Nal]-NH2 (staple 11-15; SMILES CC[C@H](C)[C@@H]1NC(=O)[C@@](C)(NC(=O)[C@H](CCCNC(=N)N)NC(=O)[C@H](CC(C)C)NC(=O)[C@@H](NC(=O)[C@H](CCC(N)=O)NC(=O)[C@H](CC(C)C)NC(=O)[C@H](CO)NC(=O)[C@H](CCCNC(=N)N)NC(=O)[C@H](CCC(N)=O)NC(=O)[C@H](CCCNC(=N)N)NC(=O)[C@H](Cc2c[nH]cn2)NC(C)=O)[C@@H](C)O)CCCC=CCCC[C@@](C)(C(=O)N[C@@H](Cc2ccc(Cl)cc2)C(=O)N[C@@H](Cc2ccc3ccccc3c2)C(N)=O)NC(=O)[C@H](CCCNC(=N)N)NC(=O)[C@H](CCC(N)=O)NC1=O) [SEQ ID NO: 179] | 59
Ac-HRQRS[Cha][NMeQ]TLR[S5]IQR[S5][Cha][2Nal]-NH2 (staple 11-15; also: N-MeGln at 7: D or L (both stated)) [SEQ ID NO: 185] | 223
Ac-HRQRS[NMeCha][NMeQ]TLR[S5]IQR[S5][Cha][2Nal]-NH2 (staple 11-15; also: N-MeGln at 7: D or L (both stated)) [SEQ ID NO: 186] | 232
Ac-HRQRSLQTLR[S5]IQR[S5][Tle][2Nal]-NH2 (staple 11-15; SMILES CC[C@H](C)[C@@H]1NC(=O)[C@@](C)(NC(=O)[C@H](CCCNC(=N)N)NC(=O)[C@H](CC(C)C)NC(=O)[C@@H](NC(=O)[C@H](CCC(N)=O)NC(=O)[C@H](CC(C)C)NC(=O)[C@H](CO)NC(=O)[C@H](CCCNC(=N)N)NC(=O)[C@H](CCC(N)=O)NC(=O)[C@H](CCCNC(=N)N)NC(=O)[C@H](Cc2c[nH]cn2)NC(C)=O)[C@@H](C)O)CCCC=CCCC[C@@](C)(C(=O)N[C@H](C(=O)N[C@@H](Cc2ccc3ccccc3c2)C(N)=O)C(C)(C)C)NC(=O)[C@H](CCCNC(=N)N)NC(=O)[C@H](CCC(N)=O)NC1=O) [SEQ ID NO: 192] | 329
Ac-HR[NMeQ]RSLQTLR[S5]IQR[S5][Tle][2Nal]-NH2 (staple 11-15; also: N-methylglutamine 3: D or L (filing names both)) [SEQ ID NO: 194] | 398
